# Assays:
# [1] = biological target: LeuM3 on cells of tonsillar B cell preparations (human) (UniProt P08571); assay: FACS staining of highly enriched tonsillar B cells
# [2] = biological target: human CD40 on cells (human) (UniProt P25942); assay: FACS staining of highly enriched tonsillar B cells
# [3] = biological target: human B7 antigen on cells (human) (UniProt P33681); assay: FACS staining of highly enriched tonsillar B cells, Donor 1
# [4] = biological target: human B7 antigen on cells (human) (UniProt P33681); assay: cell-based or functional assay
# [5] = biological target: human B7 antigen on cells (human) (UniProt P33681); assay: FACS staining of highly enriched tonsillar B cells, Donor 2
# [6] = biological target: human B7 antigen on cells (human) (UniProt P33681); assay: FACS of tonsillar B cells cultured for 5 days with immobilized anti-(IgM) antibodies and IL-2
# [7] = biological target: CD3 on cells of tonsillar B cell preparations (human) (UniProt P07766); assay: FACS staining of highly enriched tonsillar B cells, Donor 1
# [8] = biological target: CD3 on cells of tonsillar B cell preparations (human) (UniProt P07766); assay: FACS staining of highly enriched tonsillar B cells
# [9] = biological target: CD3 on cells of tonsillar B cell preparations (human) (UniProt P07766); assay: FACS staining of highly enriched tonsillar B cells, Donor 2
# Sequence of UniProt P33681 (P33681 35-288): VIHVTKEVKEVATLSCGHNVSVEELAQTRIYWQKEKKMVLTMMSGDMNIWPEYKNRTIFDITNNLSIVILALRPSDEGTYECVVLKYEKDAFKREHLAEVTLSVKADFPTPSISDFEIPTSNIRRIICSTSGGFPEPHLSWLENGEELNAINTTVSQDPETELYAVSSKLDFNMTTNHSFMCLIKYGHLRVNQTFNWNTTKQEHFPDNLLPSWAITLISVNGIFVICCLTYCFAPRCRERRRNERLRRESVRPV
# Sequence of UniProt P08571 (P08571 20-345): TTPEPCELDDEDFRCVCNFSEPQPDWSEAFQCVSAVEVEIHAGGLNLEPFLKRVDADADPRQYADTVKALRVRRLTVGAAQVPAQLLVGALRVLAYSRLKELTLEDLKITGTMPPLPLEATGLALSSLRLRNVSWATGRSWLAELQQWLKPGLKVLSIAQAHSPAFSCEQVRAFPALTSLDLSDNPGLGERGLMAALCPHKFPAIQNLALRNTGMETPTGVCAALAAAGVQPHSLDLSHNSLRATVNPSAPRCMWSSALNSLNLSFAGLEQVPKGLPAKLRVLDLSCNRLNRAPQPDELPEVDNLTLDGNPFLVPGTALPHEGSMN
# Sequence of UniProt P25942 (P25942 21-277): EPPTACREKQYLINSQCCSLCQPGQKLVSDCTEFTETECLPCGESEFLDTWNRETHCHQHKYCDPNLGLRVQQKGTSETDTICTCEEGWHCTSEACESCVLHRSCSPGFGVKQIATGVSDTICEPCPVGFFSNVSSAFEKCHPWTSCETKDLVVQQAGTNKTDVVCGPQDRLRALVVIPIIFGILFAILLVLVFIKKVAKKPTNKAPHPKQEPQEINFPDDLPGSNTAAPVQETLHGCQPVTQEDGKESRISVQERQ
substance,measurement,setting,value
anti-(LeuM3) monoclonal antibody,% of Positive Cells,[1],2.5%
anti-(CD40) monoclonal antibody G28.5,% of Positive Cells,[2],92.1%
anti-B7 monoclonal antibody B7-24,% of Positive Cells,[3],12.6%
same,"T-cell proliferation in a secondary MLC; B7-24 0.025 µg/ml, CsA 3 x 10^-7 M (CPM (by the footnote))",[4],6
same,"T-cell proliferation in a secondary MLC; B7-24 0.025 µg/ml, CsA 6 x 10^-7 M (CPM (by the footnote))",[4],6
same,"T-cell proliferation in a secondary MLC; B7-24 0.025 µg/ml, CsA 10^-7 M (CPM (by the footnote))",[4],6
same,"T-cell proliferation in a secondary MLC; B7-24 0.025 µg/ml, no CsA (CPM (by the footnote))",[4],47
same,"T-cell proliferation in a secondary MLC; B7-24 0.25 µg/ml, CsA 3 x 10^-7 M (CPM (by the footnote))",[4],2
same,"T-cell proliferation in a secondary MLC; B7-24 0.25 µg/ml, CsA 6 x 10^-7 M (CPM (by the footnote))",[4],3
same,"T-cell proliferation in a secondary MLC; B7-24 0.25 µg/ml, CsA 10^-7 M (CPM (by the footnote))",[4],3
same,"T-cell proliferation in a secondary MLC; B7-24 0.25 µg/ml, no CsA (CPM (by the footnote))",[4],33
same,"T-cell proliferation in a secondary MLC; B7-24 2.5 µg/ml, CsA 3 x 10^-7 M (CPM (by the footnote))",[4],3
same,"T-cell proliferation in a secondary MLC; B7-24 2.5 µg/ml, CsA 6 x 10^-7 M (CPM (by the footnote))",[4],3
same,"T-cell proliferation in a secondary MLC; B7-24 2.5 µg/ml, CsA 10^-7 M (CPM (by the footnote))",[4],3
same,"T-cell proliferation in a secondary MLC; B7-24 2.5 µg/ml, no CsA (CPM (by the footnote))",[4],40
same,"T-cell proliferation in secondary MLC; B7-24 0.025 µg/ml, CsA 3 x 10^-6M",[4],939 CPM
same,"T-cell proliferation in secondary MLC; B7-24 0.025 µg/ml, CsA 3 x 10^-7M",[4],1570 CPM
same,"T-cell proliferation in secondary MLC; B7-24 0.025 µg/ml, CsA 6 x 10^-6M",[4],897 CPM
same,"T-cell proliferation in secondary MLC; B7-24 0.025 µg/ml, CsA 6 x 10^-7M",[4],1590 CPM
same,"T-cell proliferation in secondary MLC; B7-24 0.025 µg/ml, CsA 10^-7M",[4],2820 CPM
same,"T-cell proliferation in secondary MLC; B7-24 0.025 µg/ml, no CsA",[4],29400 CPM
same,"T-cell proliferation in secondary MLC; B7-24 0.25 µg/ml, CsA 3 x 10^-6M",[4],545 CPM
same,"T-cell proliferation in secondary MLC; B7-24 0.25 µg/ml, CsA 3 x 10^-7M",[4],559 CPM
same,"T-cell proliferation in secondary MLC; B7-24 0.25 µg/ml, CsA 6 x 10^-6M",[4],553 CPM
same,"T-cell proliferation in secondary MLC; B7-24 0.25 µg/ml, CsA 6 x 10^-7M",[4],788 CPM
same,"T-cell proliferation in secondary MLC; B7-24 0.25 µg/ml, CsA 10^-6M",[4],601 CPM
same,"T-cell proliferation in secondary MLC; B7-24 0.25 µg/ml, CsA 10^-7M",[4],882 CPM
same,"T-cell proliferation in secondary MLC; B7-24 0.25 µg/ml, no CsA",[4],20800 CPM
same,"T-cell proliferation in secondary MLC; B7-24 2.5 µg/ml, CsA 3 x 10^-6M",[4],609 CPM
same,"T-cell proliferation in secondary MLC; B7-24 2.5 µg/ml, CsA 3 x 10^-7M",[4],697 CPM
same,"T-cell proliferation in secondary MLC; B7-24 2.5 µg/ml, CsA 6 x 10^-6M",[4],971 CPM
same,"T-cell proliferation in secondary MLC; B7-24 2.5 µg/ml, CsA 6 x 10^-7M",[4],790 CPM
same,"T-cell proliferation in secondary MLC; B7-24 2.5 µg/ml, CsA 10^-6M",[4],601 CPM
same,"T-cell proliferation in secondary MLC; B7-24 2.5 µg/ml, CsA 10^-7M",[4],1160 CPM
same,"T-cell proliferation in secondary MLC; B7-24 2.5 µg/ml, no CsA",[4],25200 CPM
same,% of Positive Cells,[5],16.8%
same,percentage of cells positive,[6],25 percent
anti-(CD3) monoclonal antibody OKT3,% of Positive Cells,[7],8%
same,% of Positive Cells,[8],2.1%
same,% of Positive Cells,[9],2.1%
